According to patent US10143754B2, “Method for peroral delivery of insulin and its analogues for therapeutic usage” (TRANSGENE BIOTEK LIMITED, priority 2011, dated 2018):

Columns and labels:
[1] = acid pH; cited from earlier work
[2] = system: Streptozotocin induced diabetic Wistar or Sprague Dawley rats; test: Modification of blood/serum glucose of diabetic rats; type: in vivo, rat; details: IV administration, FIG. 1
[3] = rat, in vivo, iv

Row | Substance | solubility [1] | duration of hypoglycemic effect [2] | reduction of blood glucose levels [2] | plasma insulin levels [3]
1 | Insulin Glargine | soluble at acid pH | – | – | –
2 | Insulin Lispro | – | short lived | rapid reduction of blood glucose levels | increased in accordance with the reduction in serum glucose levels but reduced rapidly
